The source of these data is PMC9481538, “The interaction between LC8 and LCA5 reveals a novel oligomerization function of LC8 in the ciliary-centrosome system” (Scientific Reports, 2022).

Assay [1] has as its target sLCA5-WT (LCA5 96-430 with N-terminal MBP and C-terminal 6xHis) (human (cDNA library from HEK293)) (UniProt Q86VQ0).
For assay [2] the target is unchanged. The experiment in a line: ITC; MBP-fused LCA5 construct in the cell, LC8 injected, 37 injections of 1 μl; 37 °C, PBS pH 7.4, 1 mM TCEP. On the technique in general: ITC needs no label: the signal is the heat of the interaction.
Assay [3] addresses sLCA5-ΔCQS (human (cDNA library from HEK293)) (UniProt Q86VQ0). The description is as above.
Assay [4] deals with sLCA5-ΔVQT (human (cDNA library from HEK293)) (UniProt Q86VQ0). The description is as above.
Sequence of sLCA5-ΔVQT (human (cDNA library from HEK293)) (Q86VQ0 other isoform, or with tags, fused parts or gaps mutant): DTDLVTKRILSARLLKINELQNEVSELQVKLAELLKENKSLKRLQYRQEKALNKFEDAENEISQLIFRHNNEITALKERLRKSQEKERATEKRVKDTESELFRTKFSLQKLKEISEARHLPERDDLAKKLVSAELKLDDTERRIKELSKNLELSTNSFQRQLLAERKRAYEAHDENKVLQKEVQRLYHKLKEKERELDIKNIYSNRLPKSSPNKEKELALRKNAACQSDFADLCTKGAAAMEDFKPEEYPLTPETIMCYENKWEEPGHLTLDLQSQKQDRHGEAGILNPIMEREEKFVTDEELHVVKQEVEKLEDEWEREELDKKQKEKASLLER
Assay [5] has as its target FITC-labelled BMF (Bcl-2-modifying factor) peptide (…). Briefly: fluorescence polarisation; direct titration of 50 nM FITC-BMF peptide with LC8; 25 °C, PBS, 2 mM TCEP, 0.05% Brij.
Assay [6] has as its target Dynein light chain LC8 (DYNLL2), 6xHis-tagged (UniProt Q96FJ2). The experiment in a line: SEC; Superose 6 Increase 10/300, DPBS with 200 μM TCEP; LC8 or sLCA5-WT alone; masses estimated from a calibration curve.
Assay [7] deals with sLCA5-WT (LCA5 96-430 with N-terminal MBP and C-terminal 6xHis) (human (cDNA library from HEK293)) (UniProt Q86VQ0). The experiment in a line: SEC; Superose 6 Increase 10/300, DPBS with 200 μM TCEP; 30 μM LCA5 construct with 150 μM LC8, injected immediately or after 60 min at 37 °C; fractions analysed by SDS-PAGE and densitometry. Background: SEC sorts molecules by how far they enter the pores of the column.
Sequence of sLCA5-WT (LCA5 96-430 with N-terminal MBP and C-terminal 6xHis) (human (cDNA library from HEK293)) (Q86VQ0 96-430): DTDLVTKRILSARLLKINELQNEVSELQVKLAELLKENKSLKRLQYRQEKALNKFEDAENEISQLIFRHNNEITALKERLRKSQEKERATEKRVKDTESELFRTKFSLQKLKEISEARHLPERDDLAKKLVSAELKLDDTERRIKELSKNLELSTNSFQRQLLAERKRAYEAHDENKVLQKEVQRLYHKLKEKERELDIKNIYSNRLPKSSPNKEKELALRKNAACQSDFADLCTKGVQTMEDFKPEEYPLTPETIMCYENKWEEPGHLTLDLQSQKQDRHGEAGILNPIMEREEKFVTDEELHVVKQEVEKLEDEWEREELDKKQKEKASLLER

Assay [8] addresses sLCA5-ΔCQS (human (cDNA library from HEK293)) (UniProt Q86VQ0). The assay is described as above.
Assay [9] has as its target sLCA5-ΔVQT (human (cDNA library from HEK293)) (UniProt Q86VQ0). The assay is described as above.

Sequence of Dynein light chain LC8 (DYNLL2), 6xHis-tagged (from UniProt Q96FJ2 1-89) (natural protein) (Q96FJ2 whole entry): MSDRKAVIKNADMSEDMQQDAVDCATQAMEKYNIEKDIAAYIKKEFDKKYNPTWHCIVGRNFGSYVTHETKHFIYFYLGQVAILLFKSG
Sequence of sLCA5-ΔCQS (human (cDNA library from HEK293)) (Q86VQ0 other isoform, or with tags, fused parts or gaps mutant): as the sequence (Q86VQ0 96-430) above, with C226A, Q227A, S228A counted along it

“Dynein light chain LC8 (DYNLL2), 6xHis-tagged (from UniProt Q96FJ2 1-89) (natural protein)”: the increase in the melting temperature of sLCA5-WT in complex with LC8 (CD thermal denaturation at 222 nm, 10-80 °C; 1.2 μM LCA5, 6 μM LC8) in [1] came out at 5 °C. Moreover, in assay [2], the dH is -11.8 kcal/mol and the stoichiometry N (usually a count of units in the complex or per binding partner) is 1 LCA5:LC8. In addition, in [3], the dH is -8.62 kcal/mol and the stoichiometry N was 2 LCA5:LC8. Besides, in assay [4], the dH was -12.5 kcal/mol and the stoichiometry N was 2 LCA5:LC8. Also, the LC8 concentration at 80% saturation of the BMF peptide in assay [5] came to 12 µM. Besides, the stoichiometry N in [6] is 2. Also, in [7], the molar ratio LCA5:LC8 in the LCA5 peak was 1 LCA5:LC8, the molar ratio LCA5:LC8 in the intermediate fraction is 1 LCA5:LC8 and the molar ratio sLCA5:LC8 in the oligomeric (void) fraction was 0.5 LCA5:LC8. Besides, in [8], the molar ratio LCA5:LC8 in the LCA5 peak was 2 LCA5:LC8 and the molar ratio sLCA5:LC8 in the oligomeric (void) fraction was 1 LCA5:LC8. In assay [9], the molar ratio LCA5:LC8 in the earlier eluted part of the LCA5 peak was 2 LCA5:LC8 and the molar ratio LCA5:LC8 in the later part of the LCA5 peak was 1 LCA5:LC8.
